Legend:
His6-αGL = His6-αGL (E. coli, UniProt P10443 1-1160, A921L | M923L | Val832Gly); assay: pull-down
β2 sliding clamp = β2 sliding clamp (E. coli, UniProt P0A988 1-366); assay: SEC
α270-His6 = α270-His6 (E. coli, UniProt P10443 1-270); assay: NMR
[1] = target: α270(L21P) in construct A (E. coli, UniProt P10443 1-270, Leu21Pro); assay: crystal structure
[2] = target: α270 in construct A (εCTS35–α270) (E. coli, UniProt P10443 1-270); assay: NMR

B1: εL (natural protein)
chain: MSTAITRQIVLDTETTGMNQIGAHYEGHKIIEIGAVEVVNRRLTGNNFHVYLKPDRLVDPEAFGVHGIADEFLLDKPTFAEVADEFMDYIRGAELVIHNAAFDIGFMDYEFSLLKRDIPKTNTFCKVTDSLAVARKMFPGKRNSLDALCARYEIDNSKRTLHGALLDAQILAEVYLAMTGGQLSLPLAMEGETQQQQGEATIQRIVRQASKLRVVFATDEEIAAHEARLDLVQKKGGSCLWRA
B1: binds (His6-αGL); binds (β2 sliding clamp).

B2: εCTS59 (domain or fragment)
chain: MAFAMEGETQQQQGEATIQRIVRQASKLRVVFATDEEIAAHEARLDLVQKKGGSCLWRA
B2: binds (α270-His6).

ASKLRVVFATDEEIAAHEARLDLVQKKGGSCLWRA (domain or fragment) [εCTS35 (residues 209–243 of ε) in construct A]: binds [1]; binds [2].

ATIQRIVRQASKLRVVFATDEEIAAHEARLDLVQKKGGSCLWRA (domain or fragment) [εCTS44 (residues 200–243 of ε) in construct A]: binds [1].

Source: paper PMC3664792 (Nucleic Acids Research, 2013)
